Tests used:
HjCel3A = biological target: T1, HjCel3A (Trichoderma reesei, UniProt Q12715); assay: differential scanning calorimetry; type: binding; conditions: 1000 µM; 1 mM glucose; 10 mM sodium acetate pH 5.0; Tm without glucose 77.6 °C; scan rate 200°C/h; irreversible unfolding
T1 construct: gene bgl1
T1 sequence (Q12715 20-744): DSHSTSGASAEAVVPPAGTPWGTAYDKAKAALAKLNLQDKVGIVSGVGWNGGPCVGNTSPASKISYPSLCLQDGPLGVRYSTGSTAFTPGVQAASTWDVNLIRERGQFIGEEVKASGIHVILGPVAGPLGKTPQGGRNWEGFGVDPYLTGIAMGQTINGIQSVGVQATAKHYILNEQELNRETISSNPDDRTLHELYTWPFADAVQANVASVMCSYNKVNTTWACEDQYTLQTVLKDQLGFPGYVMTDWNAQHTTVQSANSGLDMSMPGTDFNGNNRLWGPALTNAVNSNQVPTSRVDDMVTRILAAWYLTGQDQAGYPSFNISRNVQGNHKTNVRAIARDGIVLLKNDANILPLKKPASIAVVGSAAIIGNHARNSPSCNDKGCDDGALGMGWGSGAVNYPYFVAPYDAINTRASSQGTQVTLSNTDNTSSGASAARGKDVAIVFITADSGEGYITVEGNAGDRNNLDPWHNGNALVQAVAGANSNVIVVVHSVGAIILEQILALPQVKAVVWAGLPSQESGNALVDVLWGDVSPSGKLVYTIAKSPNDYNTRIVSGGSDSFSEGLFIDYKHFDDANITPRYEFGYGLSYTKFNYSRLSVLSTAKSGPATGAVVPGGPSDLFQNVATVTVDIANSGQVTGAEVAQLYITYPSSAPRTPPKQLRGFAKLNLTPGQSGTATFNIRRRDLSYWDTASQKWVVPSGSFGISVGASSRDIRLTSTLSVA
From the text: differential scanning calorimetry on HjCel3A

[1] = biological target: β-glucosidase Cel3A from Rasamsonia emersonii (Rasamsonia emersonii); assay: SEC; gel-filtration characterization of purified ReCel3A; conditions of this run not told
purified protein [2] = substrate: O=[N+]([O-])c1ccc(O[C@@H]2O[C@H](CO)[C@@H](O)[C@H](O)[C@H]2O)c(Cl)c1; assay: purified protein; type: biochemical, Rasamsonia emersonii; conditions: 100 mM phosphate pH 5.0, 37°C
[3] = substrate: O=[N+]([O-])c1ccc(O[C@@H]2OC[C@@H](O)[C@H](O)[C@H]2O)c(Cl)c1; assay: chromogenic substrate kinetics (method for CNPX not described); type: biochemical, Rasamsonia emersonii; conditions: conditions for CNPX not stated, other chromogenic substrates pH 5.0, 37°C
purified protein [4] = substrate: O=[N+]([O-])c1ccc(O[C@@H]2O[C@H](CO)[C@@H](O)[C@H](O)[C@H]2O)cc1; assay: purified protein; conditions: 100 mM phosphate pH 5.0, 37°C

In the case of `OC[C@H]1OC(O)[C@H](O)[C@@H](O)[C@@H]1O` (some centres unmarked) [glucose], the “T m (°C)” value (HjCel3A) is reported as 79.0 °C.

“β-glucosidase Cel3A from Rasamsonia emersonii (enzyme)” gave a stoichiometry N [1] of 2.

B1: ReCel3A (Rasamsonia emersonii) (protein)
chain: NLAYSPPFYPSPWANGQGDWAEAYQKAVQFVSQLTLAEKVNLTTGTGWEQDRCVGQVGSIPRLGFPGLCMQDSPLGVRDTDYNSAFPAGVNVAATWDRNLAYRRGVAMGEEHRGKGVDVQLGPVAGPLGRSPDAGRNWEGFAPDPVLTGNMMASTIQGIQDAGVIACAKHFILYEQEHFRQGAQDGYDISDSISANADDKTMHELYLWPFADAVRAGVGSVMCSYNQVNNSYACSNSYTMNKLLKSELGFQGFVMTDWGGHHSGVGSALAGLDMSMPGDIAFDSGTSFWGTNLTVAVLNGSIPEWRVDDMAVRIMSAYYKVGRDRYSVPINFDSWTLDTYGPEHYAVGQGQTKINEHVDVRGNHAEIIHEIGAASAVLLKNKGGLPLTGTERFVGVFGKDAGSNPWGVNGCSDRGCDNGTLAMGWGSGTANFPYLVTPEQAIQREVLSRNGTFTGITDNGALAEMAAAASQADTCLVFANADSGEGYITVDGNEGDRKNLTLWQGADQVIHNVSANCNNTVVVLHTVGPVLIDDWYDHPNVTAILWAGLPGQESGNSLVDVLYGRVNPGKTPFTWGRARDDYGAPLIVKPNNGKGAPQQDFTEGIFIDYRRFDKYNITPIYEFGFGLSYTTFEFSQLNVQPINAPPYTPASGFTKAAQSFGQPSNASDNLYPSDIERVPLYIYPWLNSTDLKASANDPDYGLPTEKYVPPNATNGDPQPIDPAGGAPGGNPSLYEPVARVTTIITNTGKVTGDEVPQLYVSLGGPDDAPKVLRGFDRITLAPGQQYLWTTTLTRRDISNWDPVTQNWVVTNYTKTIYVGNSSRNLPLQAPLKPYPGI
notes: secreted mature protein, signal peptide 1-20 removed; codon-optimized gene expressed in Hypocrea jecorina RL-P37 derivative with four cellulases deleted; no tag; N-glycosylated; dimer in solution; visible residues Asp21-Pro855
B1 gave a Km (purified protein [2]) of 400 µM, a kcat (purified protein [2]) of 14 s⁻¹ and a kcat/Km (purified protein [2]) of 36000 M⁻¹ s⁻¹. The Km [3] was 660 µM, the kcat [3] was 0.23 s⁻¹ and the kcat/Km [3] was 350 M⁻¹ s⁻¹. For the same molecule, the Km (purified protein [4]) was 400 µM, the kcat (purified protein [4]) was 5.4 s⁻¹ and the kcat/Km (purified protein [4]) was 14000 M⁻¹ s⁻¹.
